Experimental data reported in article PMC11197336.

Key:
[1] = molecular target: SepM_D221N (Streptococcus mutans); assay: MST; SepM (50 nM) labelled on its His-tag with RED-tris-NTA; CSP-21 in a 16-point serial dilution from 100 µM; PBS pH 5.5; 25 °C; Monolith NT.115, triplicate
[2] = molecular target: SepM_G178D (Streptococcus mutans); assay: as above
[3] = molecular target: SepM_control (Streptococcus mutans); assay: as above
[4] = molecular target: SepM_D221N (Streptococcus mutans); assay: MST; SepM (50 nM) labelled on its His-tag with RED-tris-NTA; CSP-21 in a 16-point serial dilution from 100 µM; PBS pH 5.5; 37 °C; Monolith NT.115, triplicate
[5] = molecular target: SepM_G178D (Streptococcus mutans); assay: as above
[6] = molecular target: SepM_control (Streptococcus mutans); assay: as above
[7] = molecular target: SepM_D221N (Streptococcus mutans); assay: MST; SepM (50 nM) labelled on its His-tag with RED-tris-NTA; CSP-21 in a 16-point serial dilution from 100 µM; PBS pH 7.5; 25 °C; Monolith NT.115, triplicate
[8] = molecular target: SepM_G178D (Streptococcus mutans); assay: as above
[9] = molecular target: SepM_control (Streptococcus mutans); assay: as above
[10] = molecular target: SepM_D221N (Streptococcus mutans); assay: MST; SepM (50 nM) labelled on its His-tag with RED-tris-NTA; CSP-21 in a 16-point serial dilution from 100 µM; PBS pH 7.5; 37 °C; Monolith NT.115, triplicate
[11] = molecular target: SepM_G178D (Streptococcus mutans); assay: as above
[12] = molecular target: SepM_control (Streptococcus mutans); assay: as above

For CSP-21 (peptide), the Kd [1] was 8.25 µM, the Kd [2] was 44.2 µM and the Kd [3] was 33.1 µM. For the same substance, the Kd [4] was 7.52 µM, the Kd [5] was 21.4 µM and the Kd [6] was 12.8 µM. It also gave a Kd [7] of 20.8 µM, a Kd [8] of 3.02 µM and a Kd [9] of 15.9 µM. The Kd [10] was 28.7 µM, the Kd [11] was 85 µM and the Kd [12] was 29.3 µM.
